B1: LacWT: M45 epitope-tagged wild type E. coli Lac repressor protein in whole cell extract of transfected 293 cells (protein)
chain: MKPVTLYDVAEYAGVSYQTVSRVVNQASHVSAKTREKVEAAMAELNYIPNRVAQQLAGKQSLLIGVATSSLALHAPSQIVAAIKSRADQLGASVVVSMVERSGVEACKAAVHNLLAQRVSGLIINYPLDDQDAIAVEAACTNVPALFLDVSDQTPINSIIFSHEDGTRLGVEHLVALGHQQIALLAGPLSSVSARLRLAGWHKYLTRNQIQPIAEREGDWSAMSGFQQTMQMLNEGIVPTAMLVANDQMALGAMRAITESGLRVGADISVVGYDDTEDSSCYIPPLTTIKQDFRLLGQTSVDRLLQLSQGQAVKGNQLLPVSLVKRKTTLAPNTQTASPRALADSLMQLARQVSRLESGQ
modifications: left off: small tags and cut ends

Columns and labels:
N52.E6 cells = assay: Generation of virus stocks with IPTG in the media; type: cell-based, human; conditions: 2 mM IPTG in the media
Excerpt: Towards the development of an all-inclusive helper virus whose packaging is specifically and selectively repressed while providing early and late gene products for complementation in trans of a gutted virus, the following recombinant Ad was constructed (FIG. 14). Ad-AV-VII(lac)^2-LacWT contains the AV-VII(lac)^2 minimal domain in place of the WT packaging domain as well as a CMV-M45-LacWT expression cassette. Ad-AV-VII^2-LacWT serves as a control, and contains the AV-VII^2 minimal domain without Lac binding sites, as well as the CMV-M45-LacWT expression cassette. These viruses were plaque purified and grown in N52.E6 cells. N52.E6 cells are a human amniocyte cell line transformed with Ad E1A and E1B sequences (Schiedner, Hertel et al. 2000). These cells contain only Ad nts 505-3522 and share no homologous sequence with the viral DNA constructs, thus eliminating the possibility of the generation of replication competent adenovirus (RCA) by recombination with Ad sequences present in other E1-containing cell lines. To generate stocks of these viruses, they were grown in N52.E6 cells with IPTG in the media at a concentration of 2 mM. IPTG is required in the media, as these viruses express Lac repressor protein that is able to bind to lac binding sites within the packaging domain and suppress packaging.

[1] = system: AV-VII(lac)^2 dimer probe; assay: Gel mobility shift assay, AV-VII(lac)^2 dimer probe; conditions: whole cell extract of transfected 293 cells
[2] = system: lac binding site monomer probe; assay: Gel mobility shift assay, lac binding site monomer probe; conditions: whole cell extract of transfected 293 cells

Row | Molecule | growth of Lac repressor expressing viruses (N52.E6 cells) | AV-VII(lac) dimer binding activity [1] | Lac site monomer binding activity [2]
1 | CC(C)S[C@@H]1O[C@H](CO)[C@H](O)[C@H](O)[C@H]1O [IPTG, isopropyl-β-D-thiogalactopyranoside] | allowed for growth of these viruses |  | 
2 | B1 |  | detected | detected
